# Reference: patent publication EP2402371A1 (SANOFI, dated 2012)
# T1: human GPVI on the platelet surface (human, UniProt Q9HCN6 21-339)
# T1 sequence (looked up): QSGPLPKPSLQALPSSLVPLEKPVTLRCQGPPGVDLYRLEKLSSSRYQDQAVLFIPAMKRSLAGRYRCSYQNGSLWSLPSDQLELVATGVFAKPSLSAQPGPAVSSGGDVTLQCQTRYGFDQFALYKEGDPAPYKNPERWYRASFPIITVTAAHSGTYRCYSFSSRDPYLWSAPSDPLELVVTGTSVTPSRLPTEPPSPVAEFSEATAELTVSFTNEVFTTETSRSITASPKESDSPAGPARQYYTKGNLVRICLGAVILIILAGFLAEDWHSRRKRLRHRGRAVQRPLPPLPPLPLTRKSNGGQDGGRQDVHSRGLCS
# What was measured:
# [1] = molecular target: T1, human GPVI on the platelet surface; assay: cell-based or functional assay
# hGPVI-hFc fusion protein [2] = molecular target: T2, hGPVI-hFc fusion protein (human); assay: competition assay, GPVI-Fc pre-incubated with Fab, binding to collagen-coated plates (DELFIA), Test 1
# T2 construct: also called GPVI-Fc fusion protein; human GPVI-Fc
# hGPVI-hFc fusion protein [3] = molecular target: T2, hGPVI-hFc fusion protein; assay: competition assay, GPVI-Fc pre-incubated with Fab, binding to collagen-coated plates (DELFIA), Test 2
# hGPVI-hFc fusion protein [4] = molecular target: T2, hGPVI-hFc fusion protein; assay: competition assay, GPVI-Fc pre-incubated with Fab, binding to collagen-coated plates (DELFIA), Test 3
"IC50 for inhibition of collagen induced platelet aggregation (human platelet rich plasma), Test 1 [1]","IC50 for inhibition of collagen induced platelet aggregation (human platelet rich plasma), Test 2 [1]","IC50 for inhibition of collagen induced platelet aggregation (human platelet rich plasma), Test 3 [1]",IC50 (hGPVI-hFc fusion protein [2]),IC50 (hGPVI-hFc fusion protein [3]),IC50 (hGPVI-hFc fusion protein [4]),Binder
1.6 µg/mL,6.4 µg/mL,1.3 µg/mL,0.49 µg/mL,0.56 µg/mL,0.99 µg/mL,"non-humanized Fab construct based on the original clone 390 without the His-tag (Fab, V domains shown) VH: QVQLKESGPGLVAPSQSLSITCTVSGFSLTGYGVNWVRQPPGKGLEWLGMIWGDGSTDYNSTLKSRLSISKDNSKSQVFLKMNSLQTDDTARYYCARDLPMDYWGQGTSVTVSS VL: DIQMTQSPSSLSASLGGKVTITCKASQDINKYIAWYQHKPGKGPSLLIHYTSTLQPGIPSRFSGSGSGRDYSFSISNLEPEDIATYYCLQYANLLTFGGGTKLEIKR"
2.3 µg/mL,2 µg/mL,1.1 µg/mL,–,–,–,"humanized anti-GPVI Fab VL1/VH2 (Fab, V domains shown) VH: QVQLQESGPGLVAPSQSLSITCTVSGFSLTGYGVNWVRQPPSRGLEWLGMIWGDGSTDYQSTLKSRLSISKDNSKSQVFLKMNSLTTDDTARYYCARDLPMDYWGQGTSVTVSS VL: DIQMTQSPSSLSASVGGRVTITCKASQDINKYIAWYQHKPGKGPSLLIHYTSTLQPGVPSRFSGSGSGRDYSFSISNLQPEDIATYYCLQYANLLTFGGGTKLEIKR"
1 µg/mL,2.3 µg/mL,2 µg/mL,–,–,–,"humanized anti-GPVI Fab VL3/VH4 (Fab, V domains shown) VH: QVQLQESGPGLVAPSQSLSITCTVSGFSLTYYGVNWVRQPPSRGLEWLGMIWGDGSTDYQSTLKSRLSISKDNSKSQVFLKMNSLTTDDTARYYCARDLPMDYWGQGTSVTVSS VL: DIQMTQSPSSLSASVGGRVTITCKASQDINKYIAWYQHKPGKGPSLLIHYTSTLQPGVPSRFSGSGSGRDYSFSISNLQPEDIATYYCLQYALLLTFGGGTKLEIKR"
1.4 µg/mL,2.4 µg/mL,2.3 µg/mL,–,–,–,"humanized anti-GPVI Fab VL2/VH2 (Fab, V domains shown) VH: QVQLQESGPGLVAPSQSLSITCTVSGFSLTGYGVNWVRQPPSRGLEWLGMIWGDGSTDYQSTLKSRLSISKDNSKSQVFLKMNSLTTDDTARYYCARDLPMDYWGQGTSVTVSS VL: DIQMTQSPSSLSASVGGRVTITCKASQDINKYIAWYQHKPGKGPSLLIHYTSTLQPGVPSRFSGSGSGRDYSFSISNLQPEDIATYYCLQYAHLLTFGGGTKLEIKR"
1.9 µg/mL,0.9 µg/mL,2.1 µg/mL,–,–,–,"humanized anti-GPVI Fab VL3/VH2 (Fab, V domains shown) VH: QVQLQESGPGLVAPSQSLSITCTVSGFSLTGYGVNWVRQPPSRGLEWLGMIWGDGSTDYQSTLKSRLSISKDNSKSQVFLKMNSLTTDDTARYYCARDLPMDYWGQGTSVTVSS VL: DIQMTQSPSSLSASVGGRVTITCKASQDINKYIAWYQHKPGKGPSLLIHYTSTLQPGVPSRFSGSGSGRDYSFSISNLQPEDIATYYCLQYALLLTFGGGTKLEIKR"
1.9 µg/mL,2.3 µg/mL,1.2 µg/mL,–,–,–,"humanized anti-GPVI Fab VL1/VH5 (Fab, V domains shown) VH: QVQLQESGPGLVAPSQSLSITCTVSGFSLTGYGVNWVRQPPSRGLEWLGMIWGDGSTDYQSTLKSRLSISKDNSKSQVFLKMNSLTTDDTARYYCARDLPMDEWGQGTSVTVSS VL: DIQMTQSPSSLSASVGGRVTITCKASQDINKYIAWYQHKPGKGPSLLIHYTSTLQPGVPSRFSGSGSGRDYSFSISNLQPEDIATYYCLQYANLLTFGGGTKLEIKR"
1.6 µg/mL,1.8 µg/mL,1.2 µg/mL,–,–,–,"humanized anti-GPVI Fab VL1/VH4 (Fab, V domains shown) VH: QVQLQESGPGLVAPSQSLSITCTVSGFSLTYYGVNWVRQPPSRGLEWLGMIWGDGSTDYQSTLKSRLSISKDNSKSQVFLKMNSLTTDDTARYYCARDLPMDYWGQGTSVTVSS VL: DIQMTQSPSSLSASVGGRVTITCKASQDINKYIAWYQHKPGKGPSLLIHYTSTLQPGVPSRFSGSGSGRDYSFSISNLQPEDIATYYCLQYANLLTFGGGTKLEIKR"
1.7 µg/mL,1.5 µg/mL,1.5 µg/mL,–,–,–,"humanized anti-GPVI Fab VL1/VH3 (Fab, V domains shown) VH: EVQLLESGPGLVAPSGSLSITCTVSGFSLTGYGVNWVRQPPGKGLEWLGMIWGDGSTDYQSTLKSRLSISKDNSKSQVFLKMNSLRTDDTARYYCARDLPMDYWGLGTSVTVSS VL: DIQMTQSPSSLSASVGGRVTITCKASQDINKYIAWYQHKPGKGPSLLIHYTSTLQPGVPSRFSGSGSGRDYSFSISNLQPEDIATYYCLQYANLLTFGGGTKLEIKR"
1.5 µg/mL,2.3 µg/mL,–,–,–,–,"humanized anti-GPVI Fab VL1/VH1 (Fab, V domains shown) VH: QVQLQESGPGLVAPSQSLSITCTVSGFSLTGYGVNWVRQPPSRGLEWLGMIWGDGSTDYQSTLKSRLSISKDTSKSQVFLKMNSLTTDDTARYYCARDLPMDYWGQGTSVTVSS VL: DIQMTQSPSSLSASVGGRVTITCKASQDINKYIAWYQHKPGKGPSLLIHYTSTLQPGVPSRFSGSGSGRDYSFSISNLQPEDIATYYCLQYANLLTFGGGTKLEIKR"
